Patent US10376603B2, “Engineered fluorinated biomaterials” (New York University, priority 2015, dated 2019)

Columns and labels:
Type in all cases: physicochemical
[1] = UV-Vis temperature transition (Tt) at 320 nm; conditions: 50 mM Na2HPO4, 0.5 M NaCl, pH 8.0
Description: Proteins were characterized for their temperature transition (Tt) behavior at a wavelength of 320 nm using a UV-Vis Cary-50 (Varian Inc., Cary, N.C.) equipped with a TC125 temperature regulator (Quantum Northwest, Liberty Lake, Wash.). Samples were heated at a rate of 1° C./minute from 15° C. to 85° C. The Tt was determined by taking the first derivative of the normalized absorbance (320 nm) as a function of temperature.

[2] = Doxorubicin loading/encapsulation by gel filtration and absorbance at 485 nm; conditions: 100 μM free doxorubicin, 4° C., 2 hours
Description: A mixture of 100 μM free doxorubicin (DOX) (see the extraction method below) and either CE2-RGD or CE2-RGD-TFL and standards (100 μM, 75 μM, 50 μM, 25 μM, 10 μM, 5 μM and 0 μM) were incubated at 4° C. for 2 hours in the dark. After this incubation period, the mixtures were subjected to G-25 Sephadex (Sigma-Aldrich) gel filtration chromatography with fifteen elutions of 50 mM Na2HPO4, 0.5 M NaCl, pH 8.0 at room temperature. The eluted fractions were subjected to absorbance readings ranging from 420-600 nm (Molecular Devices Spectramax M2). The eluted fraction with highest absorbance reading at 485 nm was incorporated in the standard curve trendline equation to determine the total concentration of DOX bound to the protein. That protein sample was also subjected to the BCA assay enhanced protocol to determine the total protein concentration.
Extraction of DOX from a doxorubicin-HCl (DOX-HCl) was required to achieve free hydrophobic doxorubicin for pore encapsulation. […] The final concentration of free DOX was determined by generating a standard curve from absorbance of DOX-HCl from 420-600 nm and incorporating the free DOX into the trendline equation. The absorbance measurement for free DOX concentration determination was taken at 485 nm.

[3] = Dynamic light scattering as a function of temperature; conditions: doxorubicin loaded versus unloaded
Description: Dynamic light scattering (DLS) measurements were performed on a Zetasizer Nano Series model Nano ZS90 in a type 21 quartz cuvette with the applied settings: material protein (refractive index 1.450), absorption 0.001, dispersant PBS with a viscosity of 1.0200 cP and refractive index of 1.335. Measurements were taken in triplicates, conducting 10 runs for each measurement, with a delay time of 2 seconds. Approximately, 1.0 mL of 0.5, 0.75 or 1.0 mg/mL CE2-RGD-TFL or CE2-RGD in 50 mM Na2HPO4, 0.5 M NaCl, pH 8.0 was then added to the cell.

[4] = Transmission electron microscopy of particles; conditions: 0.5 mg/mL
Description: Transmission electron microscopy (TEM) experiments were undertaken to visualize and confirm particle sizes. The CE2-RGD-TFL (0.5 mg/mL) was heated to 20° C. or 50° C. for 1.5 hours followed by application of the protein onto copper square mesh TEM grids and 1% uranyl acetate negative staining. The TEM grids were imaged using a FEI Titan Halo 300 kV electron microscope.

[5] = Circular dichroism secondary structure
Description: Circular dichroism (CD) spectroscopy was used to confirm the secondary structure. This was accomplished using a Jasco J-815 CD spectrometer with a PTC-423 S single position Peltier temperature control system. For CD experiments assessing the protein structure alone, protein concentrations were kept constant at 0.200 mg/mL in of 50 mM Na2HPO4, 0.5 M NaCl, pH 8.0. The wavelength spectrum was measured over the range of 200-300 nm with a bandwidth (step size) of 1 nm. The scanning mode was continuous at 20 nm/minute. All wavelength CD runs were conducted at 4° C.
In terms of calculations for CD analysis, molar residue ellipticity (θMRE) was calculated from ellipticity (θ) using the following equation: (1) θMRE=θ/(10*Protein Conc.*Path Length*Length of Sequence)

B1: CE2-RGD-TFL: fluorinated protein block copolymer, SEQ ID NO:18: COMPcc domain flanked by RGD linkers plus elastin-like domain; all 11 leucines as 5,5,5-trifluoroleucine (protein)
chain: MRGSHHHHHHGSACELAARGDATATATATAACGDLAPQMLRELQETNAALQDVRELLRQQVKEITFLKNTVMESDASGLQAARGDATATATATAVDKPIAASAVPGVGVPGVGVPGFGVPGVGVPGVGVPGVGVPGVGVPGFGVPGVGVPGVGVPLEGSGTGAKLN
modifications: all leucines as 5,5,5-trifluoroleucine
notes: all 11 leucines as 5,5,5-trifluoroleucine
Tt (transition temperature) ([1]; Conc. 0.20 mg/mL): 52.04 ± 0.84 °C
Tt (transition temperature) ([1]; Conc. 0.50 mg/mL): 47.87 ± 0.72 °C
Tt (transition temperature) ([1]; Conc. 0.75 mg/mL): 46.36 ± 0.03 °C
Tt (transition temperature) ([1]; Conc. 1.00 mg/mL): 45.71 ± 0.51 °C
available doxorubicin encapsulated upon saturation [2]: 49.1%
doxorubicin loading per milligram of protein [2]: 29.90±2.68 μg per milligram
onset of temperature-driven coacervation (DLS) upon loading of doxorubicin [3]: delay in the onset of temperature-driven coacervation
particle appearance (TEM) ([4]; 50° C. for 1.5 hours): amorphous aggregates of no discernible uniformity in size
particle diameter (TEM) ([4]; 1.5 hour incubation at 20° C.): 30 nm
secondary structure (circular dichroism) versus CE2-RGD ([5]; 0.200 mg/mL, 4° C.): less structure
secondary structure (circular dichroism) upon loading of doxorubicin ([5]; doxorubicin loaded versus unloaded): increase in secondary structure
